Starred links: 1 amine or outer side, 2 acyl side, 3 side chain; linkers in the order of their positions; H or OH if unused. Positions of bridges follow the written chain, without caps; N, C: chain ends. Non-standard residues stand in square brackets, D forms with d. Primed or numbered codes have the meaning given here. dTyr(4-OMe)″ = O-methyl-D-tyrosine, COc1ccc(C[C@@H](N[*:1])C(=O)[*:2])cc1; hCit = NC(=O)NCCCC[C@H](N)C(=O)O; Cit = NC(=O)NCCC[C@H](N)C(=O)O; Nle = CCCC[C@H](N)C(=O)O; Aib = CC(C)(N)C(=O)O
B1: CTX-1202 (peptide)
peptide: {CH2CO}-[dA]H[dF]RWC-NH2
modifications: thioether N-6
SMILES: C[C@H]1NC(=O)CSC[C@@H](C(N)=O)NC(=O)[C@H](Cc2c[nH]c3ccccc23)NC(=O)[C@H](CCCNC(=N)N)NC(=O)[C@@H](Cc2ccccc2)NC(=O)[C@H](Cc2c[nH]cn2)NC1=O
B2: CTX-1293 (peptide)
peptide: Ac-RCGR[dF]RWC-NH2
modifications: disulfide 2-8
SMILES: CC(=O)N[C@@H](CCCNC(=N)N)C(=O)N[C@H]1CSSC[C@@H](C(N)=O)NC(=O)[C@H](Cc2c[nH]c3ccccc23)NC(=O)[C@H](CCCNC(=N)N)NC(=O)[C@@H](Cc2ccccc2)NC(=O)[C@H](CCCNC(=N)N)NC(=O)CNC1=O
B3: CTX-1206 (peptide)
peptide: Ac-CGH[dF]RWC-NH2
modifications: disulfide 1-7
SMILES: CC(=O)N[C@H]1CSSC[C@@H](C(N)=O)NC(=O)[C@H](Cc2c[nH]c3ccccc23)NC(=O)[C@H](CCCNC(=N)N)NC(=O)[C@@H](Cc2ccccc2)NC(=O)[C@H](Cc2c[nH]cn2)NC(=O)CNC1=O
B4: CTX-1607 (peptide)
peptide: Ac-R[Nle]C[Cit][dF]RWC-NH2
modifications: disulfide 3-8
SMILES: CCCC[C@H](NC(=O)[C@H](CCCNC(=N)N)NC(C)=O)C(=O)N[C@H]1CSSC[C@@H](C(N)=O)NC(=O)[C@H](Cc2c[nH]c3ccccc23)NC(=O)[C@H](CCCNC(=N)N)NC(=O)[C@@H](Cc2ccccc2)NC(=O)[C@H](CCCNC(N)=O)NC1=O
B5: CTX-1618 (peptide)
peptide: Ac-R[Nle]C[hCit][dF]RWC-NH2
modifications: disulfide 3-8
SMILES: CCCC[C@H](NC(=O)[C@H](CCCNC(=N)N)NC(C)=O)C(=O)N[C@H]1CSSC[C@@H](C(N)=O)NC(=O)[C@H](Cc2c[nH]c3ccccc23)NC(=O)[C@H](CCCNC(=N)N)NC(=O)[C@@H](Cc2ccccc2)NC(=O)[C@H](CCCCNC(N)=O)NC1=O
B6: CTX-1625 (peptide)
peptide: Ac-R[Nle]CH[dF]RFC-NH2
modifications: disulfide 3-8
SMILES: CCCC[C@H](NC(=O)[C@H](CCCNC(=N)N)NC(C)=O)C(=O)N[C@H]1CSSC[C@@H](C(N)=O)NC(=O)[C@H](Cc2ccccc2)NC(=O)[C@H](CCCNC(=N)N)NC(=O)[C@@H](Cc2ccccc2)NC(=O)[C@H](Cc2c[nH]cn2)NC1=O
B7: CTX-1637 (peptide)
peptide: Ac-CGH[dF]RFC-NH2
modifications: disulfide 1-7
SMILES: CC(=O)N[C@H]1CSSC[C@@H](C(N)=O)NC(=O)[C@H](Cc2ccccc2)NC(=O)[C@H](CCCNC(=N)N)NC(=O)[C@@H](Cc2ccccc2)NC(=O)[C@H](Cc2c[nH]cn2)NC(=O)CNC1=O
B8: CTX-1257 (peptide)
peptide: Ac-RC[dA]R[dF]R[dF]C-NH2
modifications: disulfide 2-8
SMILES: CC(=O)N[C@@H](CCCNC(=N)N)C(=O)N[C@H]1CSSC[C@@H](C(N)=O)NC(=O)[C@@H](Cc2ccccc2)NC(=O)[C@H](CCCNC(=N)N)NC(=O)[C@@H](Cc2ccccc2)NC(=O)[C@H](CCCNC(=N)N)NC(=O)[C@@H](C)NC1=O

Key:
Assay in all cases: cell-based or functional assay
human MC3R = human MC3R (human, UniProt P41968 1-323)
human MC4R receptor [1] = target: T1, human MC4R receptor (human, UniProt P32245 1-332)
human MC4R receptor [2] = target: T1, human MC4R receptor; remark: listed apart in the source

human MC3R, sequence (P41968 whole entry): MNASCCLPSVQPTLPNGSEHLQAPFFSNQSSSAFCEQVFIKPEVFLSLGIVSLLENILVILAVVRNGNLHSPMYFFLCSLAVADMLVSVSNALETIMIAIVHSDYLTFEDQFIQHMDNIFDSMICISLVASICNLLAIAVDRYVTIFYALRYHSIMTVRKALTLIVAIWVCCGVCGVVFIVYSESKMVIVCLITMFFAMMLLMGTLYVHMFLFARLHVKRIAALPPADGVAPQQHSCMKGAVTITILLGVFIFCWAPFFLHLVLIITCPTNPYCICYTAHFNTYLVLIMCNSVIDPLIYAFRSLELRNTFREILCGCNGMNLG
T1 sequence (P32245 whole entry): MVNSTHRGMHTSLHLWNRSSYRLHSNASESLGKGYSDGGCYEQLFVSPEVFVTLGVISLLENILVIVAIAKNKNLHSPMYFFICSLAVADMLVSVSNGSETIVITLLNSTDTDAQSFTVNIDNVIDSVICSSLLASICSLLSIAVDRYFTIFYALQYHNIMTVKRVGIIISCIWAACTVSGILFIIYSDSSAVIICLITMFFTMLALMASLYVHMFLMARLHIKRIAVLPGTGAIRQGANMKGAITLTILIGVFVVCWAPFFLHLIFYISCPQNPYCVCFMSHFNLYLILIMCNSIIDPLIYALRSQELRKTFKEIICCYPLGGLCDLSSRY

| Binder | % max activation (human MC3R) | cAMP EC50 (human MC3R) | % max activation (human MC4R receptor [1]) | cAMP EC50 (human MC4R receptor [1]) | MC4R selectivity vs MC1R (human MC4R receptor [2]) | MC4R selectivity vs MC3R (human MC4R receptor [2]) |
| --- | --- | --- | --- | --- | --- | --- |
| B1 | 101% | 0.13 µM | 104% | 0.00065 µM | 0.89 |  |
| Ac-RCA[Cit][dF]R[dW]C-NH2 (disulfide 2-8) [CTX-1288] | 36% | 1.25 µM | 87% | 0.077 µM | 3.75 | 16 |
| Ac-RC[Aib][Cit][dF]RWC-NH2 (disulfide 2-8) [CTX-1289] | 21% | 0.017 µM | 93% | 0.0006 µM | 130 | 30 |
| Ac-RC[Aib][Cit][dF]R[dW]C-NH2 (disulfide 2-8) [CTX-1290] | 20% | 1.03 µM | 88% | 0.112 µM | 10 | 9.23 |
| Ac-RC[Aib]R[dF]RWC-NH2 (disulfide 2-8) [CTX-1292] | 76% | 0.0033 µM | 90% | 0.00016 µM | 2.46 | 21 |
| B2 |  |  | 87% | 0.00025 µM |  |  |
| Ac-RCG[Cit][dF]RWC-NH2 (disulfide 2-8) [CTX-1294] | 33% | 0.04 µM | 102% | 0.0035 µM | 111 | 11 |
| B3 | 94% | 0.012 µM | 101% |  |  | 23 |
| Ac-RC[Aib]R[dTyr(4-OMe)″]R[dW]C-NH2 (disulfide 2-8) [CTX-1297] |  | > 10 µM | 97% | 0.0033 µM | 0.52 | > 3000 |
| Ac-RC[Aib]R[dTyr(4-OMe)″]RFC-NH2 (disulfide 2-8) [CTX-1298] |  | > 10 µM | 93% | 0.0033 µM | 0.12 | 0.93 |
| Ac-RC[Aib][Cit][dTyr(4-OMe)″]RFC-NH2 (disulfide 2-8) [CTX-1299] |  | > 10 µM | 78% | 0.065 µM | 3.66 | > 154 |
| Ac-RC[Aib]R[dF]RFC-NH2 (disulfide 2-8) [CTX-1601] | 73% | 0.026 µM | 97% | 0.011 µM | 0.93 | 2.3 |
| B4 | 47% | 0.014 µM |  |  |  |  |
| B5 | 33% | 0.029 µM |  |  |  |  |
| B6 |  |  | 101% | 0.038 µM |  |  |
| B7 | 98% | 0.068 µM |  |  |  |  |
| {CH2CO}-[Aib][Cit][dF]RFC-NH2 (thioether N-6) [CTX-1652] |  | > 10 µM |  | > 10 µM |  |  |
| {CH2CO}-G[Cit][dF]RFC-NH2 (thioether N-6) [CTX-1655] |  | > 10 µM |  | > 10 µM |  |  |
| {CH2CO}-[dA][Cit][dF]RFC-NH2 (thioether N-6) [CTX-1658] |  | > 10 µM |  | > 10 µM |  |  |
| B8 |  | 0.044 µM |  |  | 0.02 |  |

— patent US20240391954A1, “MC4R AGONIST PEPTIDES” (The Regents of the University of Michigan, priority 2021, published 2024)
